# Assays:
# Test in all cases: two-hybrid; MAPPIT (mammalian two-hybrid) in intact HEK293T cells: bait on the EpoR/leptin receptor chimera, prey on gp130 fragments, pXP2d2-rPAP1-luciferase reporter; fold induction of luciferase, Epo-stimulated (10 ng/ml hEpo) over unstimulated; 6-well or 96-well calcium phosphate transfection
# [1] = target: Apobec3G P129A MAPPIT bait (human) (UniProt Q9HC16)
# [2] = target: Apobec3G TF106-107AA MAPPIT bait (human) (UniProt Q9HC16)
# [3] = target: Apobec3G TK98-99AD MAPPIT bait (human) (UniProt Q9HC16)
# [4] = target: Apobec3G W34A MAPPIT bait (human) (UniProt Q9HC16)
# [5] = target: Apobec3G R55A MAPPIT bait (human) (UniProt Q9HC16)
# [6] = target: Apobec3G N20A MAPPIT bait (human) (UniProt Q9HC16)
# [7] = target: Apobec3G LS27-28AA MAPPIT bait (human) (UniProt Q9HC16)
# [8] = target: Apobec3G D128Q MAPPIT bait (human) (UniProt Q9HC16)
# [9] = target: Apobec3G N31S MAPPIT bait (human) (UniProt Q9HC16)
# [10] = target: Apobec3G S137A MAPPIT bait (human) (UniProt Q9HC16)
# [11] = target: Apobec3G K99D MAPPIT bait (human) (UniProt Q9HC16)
# [12] = target: Apobec3G R14S MAPPIT bait (human) (UniProt Q9HC16)
# [13] = target: Apobec3G T32Q MAPPIT bait (human) (UniProt Q9HC16)
# [14] = target: Apobec3G L184A MAPPIT bait (human) (UniProt Q9HC16)
# [15] = target: Apobec3G RD102-103EK MAPPIT bait (human) (UniProt Q9HC16)
# [16] = target: Apobec3G K63E MAPPIT bait (human) (UniProt Q9HC16)
# Apobec3G K63E MAPPIT bait (human), sequence (Q9HC16 whole entry K63E): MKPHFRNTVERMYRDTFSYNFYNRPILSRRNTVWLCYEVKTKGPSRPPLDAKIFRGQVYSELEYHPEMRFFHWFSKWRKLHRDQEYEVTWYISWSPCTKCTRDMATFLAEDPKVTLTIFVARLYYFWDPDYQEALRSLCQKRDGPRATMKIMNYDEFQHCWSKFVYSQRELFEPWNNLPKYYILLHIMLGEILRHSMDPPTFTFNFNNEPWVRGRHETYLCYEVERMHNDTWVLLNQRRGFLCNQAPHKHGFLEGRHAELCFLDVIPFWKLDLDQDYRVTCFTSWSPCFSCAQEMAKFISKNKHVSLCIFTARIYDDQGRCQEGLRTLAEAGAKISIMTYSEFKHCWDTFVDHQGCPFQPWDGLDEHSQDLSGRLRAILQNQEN
# Apobec3G R14S MAPPIT bait (human), sequence (Q9HC16 whole entry R14S): as the sequence (Q9HC16 whole entry K63E) above, with R14S, E63K counted along it
# Apobec3G TF106-107AA MAPPIT bait (human), sequence (Q9HC16 whole entry T106A/F107A): as the sequence (Q9HC16 whole entry K63E) above, with E63K, T106A, F107A counted along it
# Apobec3G L184A MAPPIT bait (human), sequence (Q9HC16 whole entry L184A): as the sequence (Q9HC16 whole entry K63E) above, with E63K, L184A counted along it
# Apobec3G W34A MAPPIT bait (human), sequence (Q9HC16 whole entry W34A): as the sequence (Q9HC16 whole entry K63E) above, with W34A, E63K counted along it
# Apobec3G D128Q MAPPIT bait (human), sequence (Q9HC16 whole entry D128Q): as the sequence (Q9HC16 whole entry K63E) above, with E63K, D128Q counted along it
# Apobec3G T32Q MAPPIT bait (human), sequence (Q9HC16 whole entry T32Q): as the sequence (Q9HC16 whole entry K63E) above, with T32Q, E63K counted along it
# Apobec3G LS27-28AA MAPPIT bait (human), sequence (Q9HC16 whole entry L27A/S28A): as the sequence (Q9HC16 whole entry K63E) above, with L27A, S28A, E63K counted along it
# Apobec3G S137A MAPPIT bait (human), sequence (Q9HC16 whole entry S137A): as the sequence (Q9HC16 whole entry K63E) above, with E63K, S137A counted along it
# Apobec3G RD102-103EK MAPPIT bait (human), sequence (Q9HC16 whole entry R102E/D103K): as the sequence (Q9HC16 whole entry K63E) above, with E63K, R102E, D103K counted along it
# Apobec3G R55A MAPPIT bait (human), sequence (Q9HC16 whole entry R55A): as the sequence (Q9HC16 whole entry K63E) above, with R55A, E63K counted along it
# Apobec3G TK98-99AD MAPPIT bait (human), sequence (Q9HC16 whole entry T98A/K99D): as the sequence (Q9HC16 whole entry K63E) above, with E63K, T98A, K99D counted along it
# Apobec3G K99D MAPPIT bait (human), sequence (Q9HC16 whole entry K99D): as the sequence (Q9HC16 whole entry K63E) above, with E63K, K99D counted along it
# Apobec3G P129A MAPPIT bait (human), sequence (Q9HC16 whole entry P129A): as the sequence (Q9HC16 whole entry K63E) above, with E63K, P129A counted along it
# Apobec3G N31S MAPPIT bait (human), sequence (Q9HC16 whole entry N31S): as the sequence (Q9HC16 whole entry K63E) above, with N31S, E63K counted along it
# Apobec3G N20A MAPPIT bait (human), sequence (Q9HC16 whole entry N20A): as the sequence (Q9HC16 whole entry K63E) above, with N20A, E63K counted along it
substance,measurement,setting,value
Gagpol MAPPIT prey (pMG2-Gagpol) (natural protein),"MAPPIT signal, % of WT",[1],70 % of WT
same,"MAPPIT signal, % of WT",[2],94 % of WT
same,"MAPPIT signal, % of WT",[3],74 % of WT
same,"MAPPIT signal, % of WT",[4],50 % of WT
same,"MAPPIT signal, % of WT",[5],64 % of WT
same,"MAPPIT signal, % of WT",[6],71 % of WT
same,"MAPPIT signal, % of WT",[7],48 % of WT
same,"MAPPIT signal, % of WT",[8],71 % of WT
same,"MAPPIT signal, % of WT",[9],78 % of WT
same,"MAPPIT signal, % of WT",[10],127 % of WT
same,"MAPPIT signal, % of WT",[11],96 % of WT
same,"MAPPIT signal, % of WT",[12],106 % of WT
same,"MAPPIT signal, % of WT",[13],118 % of WT
same,"MAPPIT signal, % of WT",[14],110 % of WT
same,"MAPPIT signal, % of WT",[15],85 % of WT
same,"MAPPIT signal, % of WT",[16],104 % of WT

# Reference: paper PMC3438196
